From article PMC7337323 (Nature structural & molecular biology, 2020)
Each block holds one molecule with its values, some of them ahead of it.

B2: wild-type H. neapolitanus Rubisco (CbbL8S8) (complex, Halothiobacillus neapolitanus)
chain 1: MAVKKYSAGVKEYRQTYWMPEYTPLDSDILACFKITPQPGVDREEAAAAVAAESSTGTWTTVWTDLLTDMDYYKGRAYRIEDVPGDDAAFYAFIAYPIDLFEEGSVVNVFTSLVGNVFGFKAVRGLRLEDVRFPLAYVKTCGGPPHGIQVERDKMNKYGRPLLGCTIKPKLGLSAKNYGRAVYECLRGGLDFTKDDENINSQPFMRWRDRFLFVQDATETAEAQTGERKGHYLNVTAPTPEEMYKRAEFAKEIGAPIIMHDYITGGFTANTGLAKWCQDNGVLLHIHRAMHAVIDRNPNHGIHFRVLTKILRLSGGDHLHTGTVVGKLEGDRASTLGWIDLLRESFIPEDRSRGIFFDQDWGSMPGVFAVASGGIHVWHMPALVNIFGDDSVLQFGGGTLGHPWGNAAGAAANRVALEACVEARNQGRDIEKEGKEILTAAAQHSPELKIAMETWKEIKFEFDTVDKLDTQNR
chain 2: MAEMQDYKQSLKYETFSYLPPMNAERIRAQIKYAIAQGWSPGIEHVEVKNSMNQYWYMWKLPFFGEQNVDNVLAEIEACRSAYPTHQVKLVAYDNYAQSLGLAFVVYRGN

Legend:
[1] = molecular target: N*-polyPro (N* consensus peptide on a polyproline II helix); assay: BLI
[2] = molecular target: B2; assay: MST
[3] = molecular target: T1, full-length CsoS2 (H. neapolitanus) (Halothiobacillus neapolitanus, UniProt O85041 1-869); assay: native gel or EMSA
T1 sequence (looked up): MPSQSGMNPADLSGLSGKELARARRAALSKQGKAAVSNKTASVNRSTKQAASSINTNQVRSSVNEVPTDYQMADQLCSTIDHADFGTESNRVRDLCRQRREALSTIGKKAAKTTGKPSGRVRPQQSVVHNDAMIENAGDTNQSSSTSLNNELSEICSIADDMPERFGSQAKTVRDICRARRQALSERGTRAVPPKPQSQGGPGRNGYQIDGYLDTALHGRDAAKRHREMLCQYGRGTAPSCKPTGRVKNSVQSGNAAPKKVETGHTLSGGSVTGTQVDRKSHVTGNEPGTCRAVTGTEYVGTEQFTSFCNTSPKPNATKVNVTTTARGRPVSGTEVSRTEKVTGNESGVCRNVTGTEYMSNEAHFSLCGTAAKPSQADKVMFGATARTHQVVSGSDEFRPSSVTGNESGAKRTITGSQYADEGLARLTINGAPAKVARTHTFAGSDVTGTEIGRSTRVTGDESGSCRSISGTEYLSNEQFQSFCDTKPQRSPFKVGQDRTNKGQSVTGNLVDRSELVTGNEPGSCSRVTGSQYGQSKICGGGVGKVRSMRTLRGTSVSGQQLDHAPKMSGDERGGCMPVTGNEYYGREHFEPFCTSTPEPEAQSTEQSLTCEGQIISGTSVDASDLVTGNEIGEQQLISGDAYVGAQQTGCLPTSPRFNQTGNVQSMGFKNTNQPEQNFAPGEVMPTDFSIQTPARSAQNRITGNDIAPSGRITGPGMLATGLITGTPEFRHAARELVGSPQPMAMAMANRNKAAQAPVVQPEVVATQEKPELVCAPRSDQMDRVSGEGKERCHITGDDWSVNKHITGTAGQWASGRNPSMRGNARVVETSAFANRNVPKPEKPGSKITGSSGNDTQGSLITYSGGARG

[4] = molecular target: the molecule itself; assay: crystal structure

- Kd [1]: 0.1 µM
Molecule: wild-type H. neapolitanus Rubisco (CbbL8S8) (from UniProt O85040 1-473; P45686 1-110) (complex)

- Kd [2]: > 1000 µM
B1: [N1]-GFP (single CsoS2 N-peptide repeat N1 fused to GFP) (domain or fragment)
chain: PSQSGMNPADLSGLSGKELARARRAALSKQGKAAVSNKTASVNRSTKQAASSINTNQVRSSVNEVPTDYQMADQLCSTIDHADFGTESNRV
modifications: CsoS2 part of Supplementary Table 1 construct; His tag, TEV site, linker, sfGFP and StrepII left out

Second part, the molecule before the results:

Molecule: B2
- binding result [3]: binds

B3: CbbL (Rubisco large subunit, H. neapolitanus) (natural protein, Halothiobacillus neapolitanus)
chain: MAVKKYSAGVKEYRQTYWMPEYTPLDSDILACFKITPQPGVDREEAAAAVAAESSTGTWTTVWTDLLTDMDYYKGRAYRIEDVPGDDAAFYAFIAYPIDLFEEGSVVNVFTSLVGNVFGFKAVRGLRLEDVRFPLAYVKTCGGPPHGIQVERDKMNKYGRPLLGCTIKPKLGLSAKNYGRAVYECLRGGLDFTKDDENINSQPFMRWRDRFLFVQDATETAEAQTGERKGHYLNVTAPTPEEMYKRAEFAKEIGAPIIMHDYITGGFTANTGLAKWCQDNGVLLHIHRAMHAVIDRNPNHGIHFRVLTKILRLSGGDHLHTGTVVGKLEGDRASTLGWIDLLRESFIPEDRSRGIFFDQDWGSMPGVFAVASGGIHVWHMPALVNIFGDDSVLQFGGGTLGHPWGNAAGAAANRVALEACVEARNQGRDIEKEGKEILTAAAQHSPELKIAMETWKEIKFEFDTVDKLDTQNR
- binding result [4]: binds
